How the values were obtained:
[1] = tested on: cells stably expressing HA-CHMP4C constructs, with siRNA; experiment: Abscission checkpoint activation by drug; format: cell-based
[2] = tested on: HCT116^δCHMP4C cells; experiment: Cell growth assay with aphidicolin; format: cell-based; settings: 30 nM aphidicolin
[3] = tested on: HCT116^WT and HCT116^δCHMP4C cells; experiment: Cell-cycle arrest by flow cytometry, mitomycin C; format: cell-based; settings: 200 ng/mL mitomycin C, overnight
[4] = tested on: HCT116^WT and HCT116^δCHMP4C cells; experiment: Mitotic arrest by flow cytometry and Western blotting, nocodazole; format: cell-based; settings: 50 ng/mL nocodazole
[5] = tested on: HCT116^δCHMP4C cells; experiment: Karyotyping, extreme aneuploidy in HCT116^δCHMP4C; format: cell-based; settings: 0.1 μM reversine; for protection against reversine-induced aneuploidy: reexpression in HCT116^δCHMP4C
[6] = tested on: HCT116^δCHMP4C cells; experiment: Cell growth assay with reversine, HCT116^δCHMP4C; format: cell-based; settings: 0.1 μM reversine
[7] = tested on: HCT116^WT cells; settings: 0.1 μM reversine, 48 h; <37 or >48 chromosomes; DMSO 1%
[8] = tested on: HCT116^WT cells; settings: 0.1 μM reversine, 7 d
[9] = tested on: HCT116 cells; settings: 0.1 μM reversine, cells with defective abscission checkpoint
[10] = tested on: HCT116 cells; experiment: Anaphase chromosome missegregation; format: cell-based; settings: low-dose (0.1 μM) reversine, or p53 depletion by shRNA
[11] = tested on: full-length ALIX; experiment: Yeast two-hybrid β-galactosidase assay with ALIX; settings: full-length CHMP4C, mean ± SD, n = 3
[12] = tested on: HeLa cells; experiment: Abscission checkpoint activity; settings: siCHMP4C; Nup153/Nup50 partial depletion; midbody-arrested cells
[13] = tested on: HCT116^δCHMP4C cells; experiment: DNA damage: 53BP1 foci; format: cell-based; settings: reexpression in HCT116^δCHMP4C
[14] = tested on: midbody of HeLa cells; experiment: HA-CHMP4C midbody recruitment; settings: with or without nucleoporin depletion
[15] = tested on: HeLa cells stably expressing YFP-Lap2β; experiment: Resolution time of YFP-Lap2β chromatin bridges, live-cell imaging; settings: siCHMP4C, endogenous CHMP4C 685 min
[16] = tested on: HCT116 cells; experiment: Cell growth assay after p53 depletion; format: cell-based; settings: p53 shRNA
[17] = tested on: HeLa mCherry-tubulin cells; experiment: Midbody abscission time, live-cell imaging; settings: siCHMP4C background
[18] = construct expressed in HCT116^δCHMP4C

## C[C@@]1(CO)[C@H](O)CC[C@@]2(C)[C@H]1CC[C@H]1C[C@@H]3C[C@@]12CC[C@]3(O)CO [aphidicolin, reference compound]
[1]; 30 nM aphidicolin, 24 h (replication stress)
  activation of the abscission checkpoint: triggers the abscission checkpoint in a CHMP4C-dependent manner
[2]; continuous
  effect on proliferation: reduced the proliferation of HCT116^δCHMP4C cells nearly twofold compared with HCT116^WT cells

## CO[C@@]12[C@H](COC(N)=O)C3=C(C(=O)C(C)=C(N)C3=O)N1C[C@@H]1N[C@@H]12 [mitomycin C]
[3]
  G2/M cell-cycle arrest: normal in HCT116^δCHMP4C cells

## COC(=O)Nc1nc2cc(C(=O)c3cccs3)ccc2[nH]1 [nocodazole]
[4]
  mitotic / G2/M arrest: did not observe a failure of HCT116^δCHMP4C cells to arrest

## c1nc2nc(Nc3ccc(N4CCOCC4)cc3)nc(NC3CCCCC3)c2[nH]1 [reversine]
[5]; 48 h, <37 or >48 chromosomes, DMSO 4%
  cells with extreme aneuploidy: 23%
[6]; over 7-d period
  reduction of cell growth: at least 70%
[7]
  cells with extreme aneuploidy: 7%
[1]; 0.1 μM reversine, 24 h
  activation of the abscission checkpoint: activated the abscission checkpoint in a CHMP4C-dependent fashion
[8]
  reduction of cell growth: reduced HCT116^WT cell growth only modestly
[9]
  micronuclei: did display a higher proportion of micronuclei
  multinucleation: did not induce a multinucleation phenotype
[10]
  anaphase chromosome missegregation: doubled the frequency of anaphase chromosome missegregation

B1: A232T full-length CHMP4C (protein, UniProt Q96CF2 1-233, looked up, variant A232T)
chain: MSKLGKFFKGGGSSKSRAAPSPQEALVRLRETEEMLGKKQEYLENRIQREIALAKKHGTQNKRAALQALKRKKRFEKQLTQIDGTLSTIEFQREALENSHTNTEVLRNMGFAAKAMKSVHENMDLNKIDDLMQEITEQQDIAQEISEAFSQRVGFGDDFDEDELMAELEELEQEELNKKMTNIRLPNVPSSSLPAQPNRKPGMSSTARRSRAASSQRAEEEDDDIKQLAAWTT
modifications: full-length
[11]
  interaction with ALIX: significantly reduced the interaction between full-length CHMP4C and ALIX

B2: HA-CHMP4C^A232: HA-CHMP4C full length siRNA-resistant wild type, reference protein (protein, UniProt Q96CF2 1-233, looked up)
chain: MSKLGKFFKGGGSSKSRAAPSPQEALVRLRETEEMLGKKQEYLENRIQREIALAKKHGTQNKRAALQALKRKKRFEKQLTQIDGTLSTIEFQREALENSHTNTEVLRNMGFAAKAMKSVHENMDLNKIDDLMQEITEQQDIAQEISEAFSQRVGFGDDFDEDELMAELEELEQEELNKKMTNIRLPNVPSSSLPAQPNRKPGMSSTARRSRAASSQRAEEEDDDIKQLAAWAT
modifications: full-length HA tag
[5]
  protection against reversine-induced aneuploidy: protected against reversine-induced increases in aneuploidy
[6]; [18]
  restoration of growth in presence of reversine: restored by the expression of HA-CHMP4C^A232
[12]
  abscission checkpoint activity: checkpoint activity was rescued in cells that expressed HA-CHMP4C^A232
[13]
  DNA damage, 53BP1 foci: reduced to control levels upon reexpression of HA-CHMP4C^A232
[14]
  recruitment to midbody: recruited to the midbody at normal levels
[2]; [18]
  rescue of growth defect under aphidicolin: rescued by expression of HA-CHMP4C^A232
[15]
  chromatin bridge resolution time, median: 800 min
[16]
  growth after p53 depletion: reversed upon reexpression of CHMP4C^A232

B3: L228A with W231A full-length CHMP4C (protein, UniProt Q96CF2 1-233, looked up, variant L228A W231A)
chain: MSKLGKFFKGGGSSKSRAAPSPQEALVRLRETEEMLGKKQEYLENRIQREIALAKKHGTQNKRAALQALKRKKRFEKQLTQIDGTLSTIEFQREALENSHTNTEVLRNMGFAAKAMKSVHENMDLNKIDDLMQEITEQQDIAQEISEAFSQRVGFGDDFDEDELMAELEELEQEELNKKMTNIRLPNVPSSSLPAQPNRKPGMSSTARRSRAASSQRAEEEDDDIKQAAAAAT
modifications: full-length
[11]
  interaction with ALIX: complete loss of ALIX binding

B4: HA-CHMP4C^T232: HA-CHMP4C full length siRNA-resistant T232 rs35094336 mutant (protein, UniProt Q96CF2 1-233, looked up, variant A232T)
chain: MSKLGKFFKGGGSSKSRAAPSPQEALVRLRETEEMLGKKQEYLENRIQREIALAKKHGTQNKRAALQALKRKKRFEKQLTQIDGTLSTIEFQREALENSHTNTEVLRNMGFAAKAMKSVHENMDLNKIDDLMQEITEQQDIAQEISEAFSQRVGFGDDFDEDELMAELEELEQEELNKKMTNIRLPNVPSSSLPAQPNRKPGMSSTARRSRAASSQRAEEEDDDIKQLAAWTT
modifications: full-length HA tag
[5]
  protection against reversine-induced aneuploidy: but not HA-CHMP4C^T232, protected against reversine-induced increases in aneuploidy
[12]
  abscission checkpoint activity: does not support the abscission checkpoint
[17]
  abscission rate under normal growth conditions: proceeded through abscission more rapidly under normal growth conditions
[14]
  recruitment to midbody: recruited to the midbody at normal levels
[15]
  chromatin bridge resolution time, median: 200 min
